We go through 7 molecules from patent publication US20240360229A1 (Genentech, published 2024).

Residue numbers refer to the chain shown, from its start. In names and notes the source's numbering stands.

In assay [1] the target is T1, cyno CCR8 (cynomolgus monkey, UniProt O97665 1-356 (rhesus entry)).
T1 construct: also called cynomolgus CCR8; cyCCR8
Description: flow cytometry titration on CHO cells stably expressing cyno CCR8 (14 h, room temperature). How it is done:
(§1) In particular, human CCR8 CHO and cyno (cynomolgus monkey) CCR8 CHO stable cell lines were stained with a dilution series of anti-CCR8 antibodies at room temperature for 14 hours, then washed twice with FACS buffer (PBS with 0.5% BSA and 0.2 mM EDTA). Samples were washed twice with FACS buffer followed by staining with goat Fab anti-hu IgG H+L (1:300, Jackson Immuno) at 4° C. for 15 minutes.

For assay [2], the target named is T2, human CCR8 (human, UniProt P51685 1-355).
T2 construct: also CHO-hCCR8-Ga15 / CHO/hCCR8.Gna15); also called hCCR8; huCCR8
The assay can be described thus: flow cytometry titration on CHO cells stably expressing human CCR8 (14 h, room temperature). As to the method:
as §1

Assay [3] addresses T1, cyno CCR8. The assay can be described thus: LigandTracer real-time fluorescence, Alexa Fluor 488-labelled TDB on CHO cells expressing cyno CCR8; 1-to-2 fit, bivalent event. How it is done:
(§2) The following day, media was aspirated and fresh media was added. The cells were incubated at room temperature for 20 minutes prior to starting the assay. The plate was loaded onto a LIGAND TRACER® Green instrument (Ridgeview Instruments AB) for real-time fluorescence measurement. […] Antibody (Ab) dissociation was recorded by aspirating the media and adding fresh media with 10 nM of unlabeled Ab to prevent rebinding of labeled Ab. The Ab dissociation was measured overnight to obtain accurate off-rates. Untransfected CHO cells were used to subtract the non-specific binding. Specific binding traces were analyzed using TraceDrawer 1.7 (Ridgeview Instruments) software and fit with a 1-to-2 with bulk binding model to determine association (kₐ) and dissociation (kd) rate constants. The equilibrium dissociation constants (KD) for each binding event were calculated as the ratio of the dissociation and association rates, kd/kₐ.
(§3) 1 million CHO cells stably expressing either human or cynomolgus CCR8 (about 60,000 and about 30,000 receptors/cell, respectively) were seeded at a concentration of 1 million cells/mL onto a Multidish 2×2 Petri Dish (Ridgeview Instruments AB, Sweden) to form a circular drop of about 3 cm diameter in chambers A and C of the dish. […] The plate was loaded onto a […]® Green (Ridgeview Instruments AB) for real-time fluorescence measurement.

In assay [4] the target is T1, cyno CCR8. The assay can be described thus: cellular binding with LigandTracer on CHO cells expressing cyno CCR8, three experiments (same values as the bivalent row of Table 8). As to the method:
(§4) Untransfected CHO cells were used to subtract the non-specific binding. Specific binding traces were analyzed using TraceDrawer 1.7 (Ridgeview Instruments) software and fit with a 1-to-2 with bulk binding model to determine association (kₐ) and dissociation (kd) rate constants. The equilibrium dissociation constants (KD) for each binding event were calculated as the ratio of the dissociation and association rates, kd/kₐ.
(§5) 1 million CHO cells stably expressing either human or cynomolgus CCR8 (about 60,000 and about 30,000 receptors/cell, respectively) were seeded at a concentration of 1 million cells/mL onto a Multidish 2×2 Petri Dish (Ridgeview Instruments AB, Sweden) to form a circular drop of about 3 cm diameter in chambers A and C of the dish. Untransfected CHO cells were seeded in opposing chambers (B and D) in the same manner. Cells were left undisturbed to adhere for 4 hours. […] The plate was loaded onto a […]® Green (Ridgeview Instruments AB) for real-time fluorescence measurement. […] The Ab dissociation was measured overnight to obtain accurate off-rates. […] Specific binding traces were analyzed using TraceDrawer 1.7 (Ridgeview Instruments) software to determine the association-(kₐ) and dissociation-(kd) rate constants. The equilibrium dissociation constants (KD) for each binding event were calculated as the ratio of the dissociation and association rates, kd/kₐ. […]

Assay [5] addresses T2, human CCR8. The assay can be described thus: LigandTracer real-time fluorescence, Alexa Fluor 488-labelled TDB on CHO cells expressing human CCR8; 1-to-2 fit, monovalent event. As to the method:
as §2, §3

Assay [6] has as its target T2, human CCR8. Description: LigandTracer real-time fluorescence, Alexa Fluor 488-labelled TDB on CHO cells expressing human CCR8; 1-to-2 fit, bivalent event. As to the method:
as §2, §3

Assay [7] concerns the target T2, human CCR8. The assay can be described thus: cellular binding with LigandTracer on CHO cells expressing human CCR8, three experiments (same values as the bivalent row of Table 8). As to the method:
as §4, §5

Assay [8] has as its target T1, cyno CCR8. The assay can be described thus: LigandTracer real-time fluorescence, Alexa Fluor 488-labelled TDB on CHO cells expressing cyno CCR8; 1-to-2 fit, monovalent event. As to the method: as §2, §3
In assay [9] the target is T3, Human CD3-epsilon/delta dimer (linked by murine Fc) (human; mouse, UniProt P07766 23-126; P04234 22-105).
T3 construct: also called huCD3ed-mIgG2a.Fc; recombinant human CD3epsilon/delta; not shown: mouse IgG2a Fc
The assay can be described thus: SPR (Biacore T200, 37 C), TDB captured by anti-human Fc on CM5, huCD3ed-mIgG2a.Fc injected; 1:1 Langmuir, n=3.

T2 sequence (P51685 whole entry): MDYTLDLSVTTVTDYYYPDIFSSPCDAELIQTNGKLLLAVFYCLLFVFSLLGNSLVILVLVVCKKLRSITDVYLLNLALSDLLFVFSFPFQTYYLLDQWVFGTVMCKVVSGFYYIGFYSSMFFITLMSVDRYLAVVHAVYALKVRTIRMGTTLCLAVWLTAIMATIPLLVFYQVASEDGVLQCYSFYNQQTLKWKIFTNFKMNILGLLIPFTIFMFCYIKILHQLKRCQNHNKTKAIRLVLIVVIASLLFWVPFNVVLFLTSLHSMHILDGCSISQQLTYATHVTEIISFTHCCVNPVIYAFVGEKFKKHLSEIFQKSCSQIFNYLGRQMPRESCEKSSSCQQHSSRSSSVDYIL
T1 sequence (O97665 other isoform, or with tags, fused parts or gaps): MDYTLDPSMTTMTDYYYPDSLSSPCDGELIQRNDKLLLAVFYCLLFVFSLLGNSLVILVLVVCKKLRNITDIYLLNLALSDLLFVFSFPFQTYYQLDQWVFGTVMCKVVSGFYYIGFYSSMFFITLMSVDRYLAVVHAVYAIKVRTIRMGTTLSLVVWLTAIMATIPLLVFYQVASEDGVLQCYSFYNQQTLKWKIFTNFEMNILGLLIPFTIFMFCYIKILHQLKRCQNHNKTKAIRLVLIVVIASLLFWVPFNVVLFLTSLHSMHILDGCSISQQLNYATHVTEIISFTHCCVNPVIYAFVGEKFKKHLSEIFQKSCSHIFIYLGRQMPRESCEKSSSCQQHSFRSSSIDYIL
T3 sequence (P07766 23-126, stated change not applied, chain 1 of 2): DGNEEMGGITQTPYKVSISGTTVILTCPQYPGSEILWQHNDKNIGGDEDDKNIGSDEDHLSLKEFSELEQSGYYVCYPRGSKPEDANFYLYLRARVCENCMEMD
T3 sequence (P04234 22-105, stated change not applied, chain 2 of 2): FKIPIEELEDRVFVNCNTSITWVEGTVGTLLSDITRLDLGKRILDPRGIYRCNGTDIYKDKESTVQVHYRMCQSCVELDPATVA

B1: anti-CCR8 1889 WT antibody (parent) (antibody, V domains shown)
VH: EVQLLESGGGLVQPGGSLRLSCAASGIDLSTYAMGWVREAPGKGLEWVGLIHRSGRTYYATWAKGRFTISKDSSKNTLYLQMNSLRAEDTAVYYCTRSYPDYSATASIWGQGTTVTVSS
VL: DIQVTQSPSSLSASVGDRVTITCQASENIANALAWYQKKPGKPPKFLIYGASNLASGVPSRFSGSGSGTDFTFTISSLQPEDIATYYCQQAYYGNSFVEGTFGGGTKVEIK
notes: The antibody has human IgG constant regions (detected with anti-human IgG)
On to B1, for which the EC50 is 11.5 nM with cyno CCR8 [1] and 17.1 nM with human CCR8 [2].

B2: anti-CCR8 1889 S12P.I29V.Y58A (PVA) (antibody, V domains shown)
VH: B1 VH with Y58A
VL: B1 VL with S12P, I29V
notes: It is put together from the printed names of the heavy chain variant (Y58A) and the light chain variant (S12P.I29V)
Take B2: the 50% effective concentration (EC50) with cyno CCR8 [1] was determined as 6.14 nM; with human CCR8 [2] it was 1.03 nM.

B3: anti-CCR8 1889 S12P.I29V.E95dS.T57D.Y58A (PVSDA) (antibody, V domains shown)
VH: B1 VH with T57D, Y58A
VL: B1 VL with S12P, I29V, E99S
notes: It is put together from the printed names of the heavy and light chain variants; also called I29V.E95dS.Y57D.Y58A
Turning to B3, the values for the concentration for a half-maximal effect (EC50) with cyno CCR8 [1] and with human CCR8 [2] were 2.24 nM and 0.94 nM, respectively.

B4: anti-CCR8 1889 S12P.I29V (PV) (antibody, V domains shown)
VH: B1 VH
VL: B1 VL with S12P, I29V
On to B4, for which the results for the EC50 in the assay with cyno CCR8 [1] and with human CCR8 [2] were 7.67 nM and 1.65 nM, respectively.

B5: anti-CCR8 1889 S12P.I29V.E95dS.Y58A (PVSA) (antibody, V domains shown)
VH: B1 VH with Y58A
VL: B1 VL with S12P, I29V, E99S
notes: It is put together from the printed names of the heavy and light chain variants
Turning to B5, the EC50 with cyno CCR8 [1] stood at 3.39 nM; with human CCR8 [2], 1.19 nM.

B6: anti-CCR8 1889 S12P.I29V.E95dS (PVS) (antibody, V domains shown)
VH: B1 VH
VL: B1 VL with S12P, I29V, E99S
On to B6, for which the EC50 with cyno CCR8 [1] amounted to 3.13 nM; with human CCR8 [2], 0.66 nM.

B7: 1889/1889:40G5c anti-CCR8 TDB 2+1 A/AB (A: 1889 P, B: 40G5c) (bispecific antibody, human IgG1, kappa, L234A L235A)
heavy 1: EVQLLESGGGLVQPGGSLRLSCAASGIDLSTYAMGWVREAPGKGLEWVGLIHRSGRTYYATWAKGRFTISKDSSKNTLYLQMNSLRAEDTAVYYCTRSYPDYSATASIWGQGTTVTVSSASTKGPSVFPLAPSSKSTSGGTAALGCLVKDYFPEPVTVSWNSGALTSGVHTFPAVLQSSGLYSLKSVVTVPSSSLGTQTYICNVNHKPSNTKVDKKVEPKSCDKTHTCPPCPAPEAAGGPSVFLFPPKPKDTLMISRTPEVTCVVVDVSHEDPEVKFNWYVDGVEVHNAKTKPREEQYNSTYRVVSVLTVLHQDWLNGKEYKCKVSNKALGAPIEKTISKAKGQPREPQVYTLPPSREEMTKNQVSLWCLVKGFYPSDIAVEWESNGQPENNYKTTPPVLDSDGSFFLYSKLTVDKSRWQQGNVFSCSVMHEALHNHYTQKSLSLSPGK
light 1: DIQVTQSPSSLPASVGDRVTITCQASENIANALAWYQKKPGKPPKFLIYGASNLASGVPSRFSGSGSGTDFTFTISSLQPEDIATYYCQQAYYGNSFVEGTFGGGTKVEIKRTVAAPSVFIFPPSDEQLKSGTASVECLLNNFYPREAKVQWKVDNALQSGNSQESVTEQDSKDSTYSLSSTLTLSKADYEKHKVYACEVTHQGLSSPVTKSFNRGEC
heavy 2: EVQLLESGGGLVQPGGSLRLSCAASGIDLSTYAMGWVREAPGKGLEWVGLIHRSGRTYYATWAKGRFTISKDSSKNTLYLQMNSLRAEDTAVYYCTRSYPDYSATASIWGQGTTVTVSSASTKGPSVFPLAPSSKSTSGGTAALGCLVKDYFPEPVTVSWNSGALTSGVHTFPAVLQSSGLYSLKSVVTVPSSSLGTQTYICNVNHKPSNTKVDKKVEPKSCDKTHTEVQLVQSGAEVKKPGASVKVSCKASGYTFTNYYIHWVRKAPGQGLEWIGWIYPGDGNTKYNEKFKGRATLTADTSTSTAYLELSSLRSEDTAVYYCARDSYSNYYFDYWGQGTLVTVSSASTKGPSVFPLAPSSKSTSGGTAALGCLVKDYFPEPVTVSWNSGALTSGVHTFPAVLQSSGLYSLESVVTVPSSSLGTQTYICNVNHKPSNTKVDKKVEPKSCDKTHTCPPCPAPEAAGGPSVFLFPPKPKDTLMISRTPEVTCVVVDVSHEDPEVKFNWYVDGVEVHNAKTKPREEQYNSTYRVVSVLTVLHQDWLNGKEYKCKVSNKALGAPIEKTISKAKGQPREPQVYTLPPSREEMTKNQVSLSCAVKGFYPSDIAVEWESNGQPENNYKTTPPVLDSDGSFFLVSKLTVDKSRWQQGNVFSCSVMHEALHNHYTQKSLSLSPGK
light 2: not shown
notes: 2+1 T cell-dependent bispecific: human IgG1 Fc with LALA-PG, knob-into-hole and charge mutations
B7: the Kd came to 0.0228 nM with cyno CCR8 [3]; 0.023 nM with cyno CCR8 [4]; 0.484 nM with human CCR8 [5]; 0.00778 nM in the assay with human CCR8 [6]; 0.008 nM in the assay with human CCR8 [7]; 1.01 nM with cyno CCR8 [8]. Also, the Kd in [9] amounted to 1160 nM.
